# Test results reported in paper PMC12693692, “Benzodioxane-benzamides targeting bacterial cell division protein FtsZ potentially disrupt SlmA-mediated nucleoid occlusion and reversible biomolecular condensation” (International journal of biological macromolecules, 2025).
# B1: SlmA (E. coli nucleoid occlusion protein), bound to its DNA site SBS (natural protein, UniProt P0C093 1-198, looked up)
# chain: MAEKQTAKRNRREEILQSLALMLESSDGSQRITTAKLAASVGVSEAALYRHFPSKTRMFDSLIEFIEDSLITRINLILKDEKDTTARLRLIVLLLLGFGERNPGLTRILTGHALMFEQDRLQGRINQLFERIEAQLRQVLREKRMREGEGYTTDETLLASQILAFCEGMLSRFVRSEFKYRPTDDFDARWPLIAAQLQ
# notes: SlmA, E. coli; the DNA is not a chain; also called SlmA-SBS; SlmA nucleoprotein complexes
# B2: FtsZ (E. coli cell division protein, tubulin-like GTPase) (natural protein, UniProt P0A9A6 1-383, looked up)
# chain: MFEPMELTNDAVIKVIGVGGGGGNAVEHMVRERIEGVEFFAVNTDAQALRKTAVGQTIQIGSGITKGLGAGANPEVGRNAADEDRDALRAALEGADMVFIAAGMGGGTGTGAAPVVAEVAKDLGILTVAVVTKPFNFEGKKRMAFAEQGITELSKHVDSLITIPNDKLLKVLGRGISLLDAFGAANDVLKGAVQGIAELITRPGLMNVDFADVRTVMSEMGYAMMGSGVASGEDRAEEAAEMAISSPLLEDIDLSGARGVLVNITAGFDLRLDEFETVGNTIRAFASDNATVVIGTSLDPDMNDELRVTVVATGIGMDKRPEITLVTNKQVQQPVMDRYQQHGMAPLTQEQKPVAKVVNDNAPQTAKEPDYLDIPAFLRKQAD
# modifications: tracer fraction only (10-50 nM in 10 uM unlabeled FtsZ): Alexa Fluor 488 succinimidyl ester at the amino groups, 0.4-0.5 mol of dye per mole of protein
# notes: FtsZ, E. coli; it is kept as the same molecule; Polymers were triggered with GTP; also called FtsZ-GTP; FtsZ polymers
# Key:
# [1] = biological target: B2; assay: fluorescence polarisation; fluorescence anisotropy binding titration in solution: SlmA (1 uM) and SBS-Fl (10 nM) with increasing concentrations of FtsZ, right after 2 mM GTP; with or without 20 uM FZ95 or FZ100; 25 C; 50 mM Tris-HCl pH 7.5, 300 mM KCl, 5 mM MgCl2; 1:1 model, apparent parameters; settings: both partners purified
# [2] = biological target: the molecule itself; assay: fluorescence correlation spectroscopy; FtsZ 10 uM (10 nM FtsZ-Alexa 488 as tracer), with 2 mM GTP and regeneration system against no GTP; dilute solution buffer; self-association into polymers
Binder,binding result [1],binding result [2]
B1,binds,–
B2,–,binds
